Blank lines part the entries; values can stand above or below the molecule they belong to.
What was measured:
[1] = biological target: NorRΔGAF (GAF domain deleted form of E. coli NorR) (E. coli); test: negative-stain electron microscopy
[2] = biological target: NorRΔGAF (GAF domain deleted form of E. coli NorR) (E. coli); test: SEC
[3] = biological target: NorRΔGAF (GAF domain deleted form of E. coli NorR) (E. coli)
NorRΔGAF [4] = biological target: T1, NorRΔGAF (Escherichia coli, UniProt P37013 178-504); test: EMSA
T1 sequence: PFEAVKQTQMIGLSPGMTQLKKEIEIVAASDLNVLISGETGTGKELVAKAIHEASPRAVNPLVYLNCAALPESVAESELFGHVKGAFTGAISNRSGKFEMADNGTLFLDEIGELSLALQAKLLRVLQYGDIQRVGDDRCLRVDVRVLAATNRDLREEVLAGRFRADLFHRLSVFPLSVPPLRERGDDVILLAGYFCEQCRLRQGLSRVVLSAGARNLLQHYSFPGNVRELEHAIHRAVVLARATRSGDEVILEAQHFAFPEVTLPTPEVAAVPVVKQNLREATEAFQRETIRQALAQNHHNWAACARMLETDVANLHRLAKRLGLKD

NorRΔGAF [5] = biological target: T1, NorRΔGAF; test: gel filtration

- stoichiometry N [1]: 6
- stoichiometry N [2]: 2
- ATPase activity against NorRΔGAF concentration with 21 bp NorR1 DNA (1:1): Keff [3]: 8.4 µM
Molecule: NorRΔGAF (GAF domain deleted form of E. coli NorR) (domain or fragment)

B1: NorR123 66 bp (dsDNA)
DNA 1: TCACTGTCAATTTGACTATAGATATTGTCATATCGACCATTTGATTGATAGTCATTTTGACTACTC
DNA 2: GAGTAGTCAAAATGACTATCAATCAAATGGTCGATATGACAATATCTATAGTCAAATTGACAGTGA
- Kd (NorRΔGAF [4]): 174 nM

B2: NorR1 21 bp (dsDNA)
DNA 1: GATAGTCATTTTGACTACTCA
DNA 2: TGAGTAGTCAAAATGACTATC
- binding result (NorRΔGAF [5]): binds
